Experimental data as given in patent US20150307603A1 (MODIQUEST B V, published 2015).
Non-standard residues stand in square brackets, D forms with d. No end group written: not given here. Cit = NC(=O)NCCC[C@H](N)C(=O)O

Experiments:
[1] = molecular target: T1, CFC-1; test: ELISA, Ab 0.4 ug/well
T1 construct: Positive control for anti-citrulline reactivity; also called cfc1 XG; Cfc1-peptide
Description: (§1) Biotin and citrulline-containing peptides derived from fibrinogen and vimentin were immobilized on NEUTRAVIDIN®-coated 96-well ELISA plates (0.3 μg/well). CFC-1 and CFC-0 were coated at the same concentration and served as positive and negative controls, respectively, for specific anti-citrulline reactivity and as coating controls. Non-coated wells were used to test for aspecific binding of the antibodies. […] Detection of bound anti-citrulline antibodies was performed by incubating the wells with rabbit anti-human HRP (1:2000) for 1 hour at RT followed by incubation with TMB substrate. The resulting OD (y-axis) is a measure for antibody binding.
(§2) Biotin-labeled and citrulline-containing fibrinogen and vimentin peptides (Table 5) were also tested for reactivity with the therapeutic antibodies. Peptides were coated on 96-well NEUTRAVIDIN®-ELISA plates.

[2] = molecular target: T2, huFibα XH (human, X at position 15 = citrulline; biotin-labelled); test: ELISA, Ab 0.4 ug/well
T2 peptide: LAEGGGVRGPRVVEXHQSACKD
Description: as §1, §2

[3] = molecular target: T3, huFibα XG (human, X at position 8 = citrulline; biotin-labelled); test: ELISA, Ab 0.4 ug/well
T3 peptide: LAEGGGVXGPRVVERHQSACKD
Description: as §1, §2

[4] = molecular target: T4, msFibβ XG (mouse, also: biotin-labelled); test: ELISA, Ab 0.4 ug/well
T4 construct: also called mouse fibrinogen β peptide
T4 peptide: EPTDSLDA[Cit]GHRPVDRR
Description: as §1, §2

[5] = molecular target: T1, CFC-1; test: ELISA, Ab 0.08 ug/well
Description: as §1, with “histone 2A” for “fibrinogen and vimentin”

[6] = molecular target: T5, peptide no. 1 (human histone 2A) (human, also: biotin-labelled); test: ELISA, Ab 0.08 ug/well
T5 construct: also called peptide 1; AAASGXGKQGGK
T5 peptide: AAASG[Cit]GKQGGK
Description: as §1, with “histone 2A” for “fibrinogen and vimentin”

[7] = molecular target: T6, peptide no. 2 (human histone 2A) (human, also: biotin-labelled); test: ELISA, Ab 0.08 ug/well
T6 construct: also called peptide 2
T6 peptide: AKAKS[Cit]SSRAGL
Description: as §1, with “histone 2A” for “fibrinogen and vimentin”

[8] = molecular target: T7, peptide no. 3 (human histone 2A) (human, also: biotin-labelled); test: ELISA, Ab 0.08 ug/well
T7 construct: also called peptide 3
T7 peptide: KSRSS[Cit]AGLQFP
Description: as §1, with “histone 2A” for “fibrinogen and vimentin”

[9] = molecular target: T8, peptide no. 4 (human histone 2A) (human, also: biotin-labelled); test: ELISA, Ab 0.08 ug/well
T8 construct: also called peptide 4
T8 peptide: QFPVG[Cit]VHRLLR
Description: as §1, with “histone 2A” for “fibrinogen and vimentin”

[10] = molecular target: T9, peptide no. 5 (human histone 2A) (human, also: biotin-labelled); test: ELISA, Ab 0.08 ug/well
T9 construct: also called peptide 5
T9 peptide: VGRVH[Cit]LLRKGN
Description: as §1, with “histone 2A” for “fibrinogen and vimentin”

[11] = molecular target: T10, peptide no. 6 (human histone 2A) (human, also: biotin-labelled); test: ELISA, Ab 0.08 ug/well
T10 construct: also called peptide 6
T10 peptide: VHRLL[Cit]KGNYSE
Description: as §1, with “histone 2A” for “fibrinogen and vimentin”

[12] = molecular target: T11, peptide no. 8 (human histone 2A) (human, also: biotin-labelled); test: ELISA, Ab 0.08 ug/well
T11 construct: also called peptide 8
T11 peptide: AGNAA[Cit]DNKKTR
Description: as §1, with “histone 2A” for “fibrinogen and vimentin”

[13] = molecular target: T12, peptide no. 9 (human histone 2A) (human, also: biotin-labelled); test: ELISA, Ab 0.08 ug/well
T12 construct: also called peptide 9
T12 peptide: DNKKT[Cit]IIPRHL
Description: as §1, with “histone 2A” for “fibrinogen and vimentin”

[14] = molecular target: T13, peptide no. 11 (human histone 2A) (human, also: biotin-labelled); test: ELISA, Ab 0.08 ug/well
T13 construct: also called peptide 11
T13 peptide: LQLAI[Cit]NDEELN
Description: as §1, with “histone 2A” for “fibrinogen and vimentin”

[15] = molecular target: T14, peptide no. 12 (human histone 2A) (human, also: biotin-labelled); test: ELISA, Ab 0.08 ug/well
T14 construct: also called peptide 12
T14 peptide: NKLLG[Cit]VTIAQG
Description: as §1, with “histone 2A” for “fibrinogen and vimentin”

[16] = molecular target: T15, human recombinant histone 2A (human); test: ELISA, Ab 0.016 ug/well
T15 construct: Non-deiminated; also called H2A
Description: (§3) The resulting OD (y-axis) is a measure for antibody binding. H1-recombinant histone 1; H1/p2-huPAD2 recombinant histone 1; H1/p4-huPAD4 recombinant histone 1, and so forth (x-axis).

[17] = molecular target: T16, huPAD2-deiminated human recombinant histone 2A (human); test: ELISA, Ab 0.016 ug/well
T16 construct: also called H2A/p2; histone 2A/p2
Description: as §3

[18] = molecular target: T17, huPAD4-deiminated human recombinant histone 2A (human); test: ELISA, Ab 0.016 ug/well
T17 construct: also called H2A/p4; histone 2A/p4
Description: as §3

[19] = molecular target: T18, human recombinant histone 2B (human); test: ELISA, Ab 0.016 ug/well
T18 construct: Non-deiminated; also called H2B
Description: as §3

[20] = molecular target: T19, huPAD2-deiminated human recombinant histone 2B (human); test: ELISA, Ab 0.016 ug/well
T19 construct: also called H2B/p2
Description: as §3

[21] = molecular target: T20, huPAD4-deiminated human recombinant histone 2B (human); test: ELISA, Ab 0.016 ug/well
T20 construct: also called H2B/p4
Description: as §3

[22] = molecular target: T21, huPAD2-deiminated human recombinant histone 3 (human); test: ELISA, Ab 0.016 ug/well
T21 construct: also called H3/p2; histone 3/p2
Description: as §3

[23] = molecular target: T22, huPAD4-deiminated human recombinant histone 3 (human); test: ELISA, Ab 0.016 ug/well
T22 construct: also called H3/p4
Description: as §3

[24] = molecular target: human recombinant histone 4 (human, UniProt P62805 2-103); test: ELISA, Ab 0.016 ug/well
Description: as §3

[25] = molecular target: T1, CFC-1; test: ELISA, Ab 0.016 ug/well
Description: as §3

[26] = molecular target: T23, msFibα XH (mouse, X at position 15 = citrulline; biotin-labelled); test: ELISA, Ab 0.0032 ug/well
T23 peptide: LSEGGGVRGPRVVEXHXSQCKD
Description: as §1, §2

[27] = molecular target: T24, msFibα XG (mouse, X at position 8 = citrulline; biotin-labelled); test: ELISA, Ab 0.0032 ug/well
T24 peptide: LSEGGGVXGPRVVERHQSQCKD
Description: as §1, §2

B1: RhmAb2.102 (antibody, human IgG1, lambda)
heavy: not shown
light: QSVLTQPPSMSAAPGQKVTISCSGSSSNIGNNYVSWYQQVPGTAPKLLIYDDNKRPSGIPGRFSGSKSATSATLGITGLQAGDEADYYCGSWDDNLSVVLFGGGTKLTVLGQPKAAPSVTLFPPSSEELQANKATLVCLISDFYPGAVTVAWKADSSPVKAGVETTTPSKQSNNKYAASSYLSLTPEQWKSHRSYSCQVTHEGSTVEKTVAPTECS
notes: Human IgG1 lambda; also called Rhm2.102
OD [1]: 3.79 OD450
OD [2]: 0.09 OD450
OD [3]: 0.521 OD450
OD [4]: 1.67 OD450
OD [5]: 2.66 OD450
OD [6]: 2.04 OD450
OD [7]: 0.086 OD450
OD [8]: 0.091 OD450
OD [9]: 0.192 OD450
OD [10]: 0.066 OD450
OD [11]: 0.123 OD450
OD [12]: 0.06 OD450
OD [13]: 0.06 OD450
OD [14]: 0.064 OD450
OD [15]: 0.06 OD450
OD [16]: 0.057 OD450
OD [17]: 0.628 OD450
OD [18]: 0.426 OD450
OD [19]: 0.065 OD450
OD [20]: 0.052 OD450
OD [21]: 0.052 OD450
OD [22]: 0.155 OD450
OD [23]: 0.076 OD450
OD [24]: 0.061 OD450
OD [25]: 0.702 OD450
OD [26]: 0.085 OD450
OD [27]: 0.125 OD450
